Assay results from patent US20120316071A1 (published 2012).
Blank lines part the entries; values can stand above or below the binder they belong to.

Tests used:
[1] = target: T1, rHuman EGF R/Fc Chimera, CF (R&D Systems Cat#344-ER) (human, UniProt P00533 25-645); assay: ECL multispot (MSD) assay, antigen spotted on plate, Fab in solution; blank spot of this well 204
T1 construct: Bought recombinant protein; also called epidermal growth factor receptor

[2] = target: T2, rHuman HGF R/c-MET/Fc Chimera, CF (R&D Systems Cat#358-MT/CF) (human, UniProt P08581 25-932); assay: as above
T2 construct: Bought recombinant protein; also called HGF R/Fc; hepatocyte growth factor receptor

[3] = target: T3, rHuman Notch-1/Fc Chimera, CF (R&D Systems Cat#3647-TK) (human); assay: as above
T3 construct: Bought recombinant protein

[4] = target: T4, rHuman CD44/Fc Chimera, CF (R&D Systems Cat#3660-CD) (human, UniProt P16070 21-220); assay: as above
T4 construct: Bought recombinant protein

[5] = target: T5, rHuman IGF-1 sR (insulin-like growth factor-1 soluble receptor), CF (R&D Systems Cat#391-GR) (human, UniProt P08069 31-932); assay: as above
T5 construct: Bought recombinant soluble receptor

[6] = target: T6, rHuman P-Cadherin/Fc Chimera, CF (R&D Systems Cat#861-PC) (human, UniProt P22223 108-654); assay: as above
T6 construct: Bought recombinant protein

[7] = target: T7, rHuman Erythropoietin R/Fc Chimera, CF (R&D Systems Cat#963-ER) (human, UniProt P19235 25-250); assay: as above
T7 construct: Bought recombinant protein; also called EPO R; EPO R/Fc

[8] = target: T8, Recombinant Human DLL4 (R&D Systems Cat#1506-D4/CF) (human, UniProt Q9NR61 27-524); assay: as above
T8 construct: Bought recombinant protein; also called delta-like protein 4; rHuman DLL4

[9] = target: T9, rHuman ErbB2/Fc Chimera, CF (R&D Systems Cat#1129-ER) (human, UniProt P04626 23-652); assay: as above
T9 construct: Bought recombinant protein; also called human epidermal growth factor 2 receptor

[10] = target: T1, rHuman EGF R/Fc Chimera, CF (R&D …); assay: ECL multispot (MSD) assay, antigen spotted on plate, Fab in solution; blank spot of this well 224
[11] = target: T2, rHuman HGF R/c-MET/Fc Chimera, CF (R&D …); assay: as above
[12] = target: T3, rHuman Notch-1/Fc Chimera, CF (R&D …); assay: as above
[13] = target: T4, rHuman CD44/Fc Chimera, CF (R&D Systems …); assay: as above
[14] = target: T5, rHuman IGF-1 sR (insulin-like growth …); assay: as above
[15] = target: T6, rHuman P-Cadherin/Fc Chimera, CF (R&D …); assay: as above
[16] = target: T7, rHuman Erythropoietin R/Fc Chimera, CF …; assay: as above
[17] = target: T8, Recombinant Human DLL4 (R&D Systems …); assay: as above
[18] = target: T9, rHuman ErbB2/Fc Chimera, CF (R&D …); assay: as above
[19] = target: T1, rHuman EGF R/Fc Chimera, CF (R&D …); assay: ECL multispot (MSD) assay, antigen spotted on plate, Fab in solution; blank spot of this well 271
[20] = target: T2, rHuman HGF R/c-MET/Fc Chimera, CF (R&D …); assay: as above
[21] = target: T3, rHuman Notch-1/Fc Chimera, CF (R&D …); assay: as above
[22] = target: T4, rHuman CD44/Fc Chimera, CF (R&D Systems …); assay: as above
[23] = target: T5, rHuman IGF-1 sR (insulin-like growth …); assay: as above
[24] = target: T6, rHuman P-Cadherin/Fc Chimera, CF (R&D …); assay: as above
[25] = target: T7, rHuman Erythropoietin R/Fc Chimera, CF …; assay: as above
[26] = target: T8, Recombinant Human DLL4 (R&D Systems …); assay: as above
[27] = target: T9, rHuman ErbB2/Fc Chimera, CF (R&D …); assay: as above
[28] = target: T10, rHuman HGF R/c-MET/Fc Chimera, CF (R&D Systems Cat#358-MT/CF) (human, UniProt P08581 25-932); assay: ECL multispot (MSD) assay, antigen spotted on plate, Fab in solution; blank spot of this well 270
[29] = target: T11, rHuman Notch-1/Fc Chimera, CF (R&D Systems Cat#3647-TK) (human); assay: as above
T11 chain: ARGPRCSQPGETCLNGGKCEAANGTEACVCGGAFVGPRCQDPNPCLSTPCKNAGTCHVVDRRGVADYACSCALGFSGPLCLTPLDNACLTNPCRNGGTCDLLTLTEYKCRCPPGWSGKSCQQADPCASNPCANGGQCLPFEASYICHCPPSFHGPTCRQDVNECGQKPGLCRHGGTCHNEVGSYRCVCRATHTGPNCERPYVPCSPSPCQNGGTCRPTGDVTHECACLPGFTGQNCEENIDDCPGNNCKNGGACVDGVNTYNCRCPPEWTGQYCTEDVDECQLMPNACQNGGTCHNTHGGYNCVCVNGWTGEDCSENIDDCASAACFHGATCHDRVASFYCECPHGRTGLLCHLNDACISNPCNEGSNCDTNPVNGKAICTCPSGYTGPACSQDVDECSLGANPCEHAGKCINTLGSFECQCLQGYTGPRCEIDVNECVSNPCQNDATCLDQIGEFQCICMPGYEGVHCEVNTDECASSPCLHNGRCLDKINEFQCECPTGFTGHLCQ

[30] = target: T12, rHuman CD44/Fc Chimera, CF (R&D Systems Cat#3660-CD) (human, UniProt P16070 21-220); assay: as above
[31] = target: T13, rHuman P-Cadherin/Fc Chimera, CF (R&D Systems Cat#861-PC) (human, UniProt P22223 108-654); assay: as above
[32] = target: T14, rHuman Erythropoietin R/Fc Chimera, CF (R&D Systems Cat#963-ER) (human, UniProt P19235 25-250); assay: as above
[33] = target: T10, rHuman HGF R/c-MET/Fc Chimera, CF (R&D …); assay: ECL multispot (MSD) assay, antigen spotted on plate, Fab in solution; blank spot of this well 338
[34] = target: T11, rHuman Notch-1/Fc Chimera, CF (R&D …); assay: as above
[35] = target: T12, rHuman CD44/Fc Chimera, CF (R&D Systems …); assay: as above
[36] = target: T13, rHuman P-Cadherin/Fc Chimera, CF (R&D …); assay: as above
[37] = target: T14, rHuman Erythropoietin R/Fc Chimera, CF …; assay: as above

ECL signal [1]: 237
ECL signal [2]: 272
ECL signal [3]: 334
ECL signal [4]: 96
ECL signal [5]: 197
ECL signal [6]: 208
ECL signal [7]: 329
ECL signal [8]: 2120
ECL signal [9]: 157
ECL signal [10]: 279
ECL signal [11]: 275
ECL signal [12]: 171
ECL signal [13]: 197
ECL signal [14]: 168
ECL signal [15]: 171
ECL signal [16]: 0
ECL signal [17]: 2830
ECL signal [18]: 149
ECL signal [19]: 272
ECL signal [20]: 306
ECL signal [21]: 257
ECL signal [22]: 189
ECL signal [23]: 241
ECL signal [24]: 297
ECL signal [25]: 304
ECL signal [26]: 3480
ECL signal [27]: 330
B1: Fab VH1-46_IGHD6-6*01_IGHJ1*01 S102A/S103P/S104F (APF) & L6_IGKJ1*01 (Fab, V domains shown)
VH: QVQLVQSGAEVKKPGASVKVSCKASGYTFTSYYMHWVRQAPGQGLEWMGIINPSGGSTSYAQKFQGRVTMTRDTSTSTVYMELSSLRSEDTAVYYCAREEYAPFSAEYFQHWGQGTLVTVSS
VL: not shown
notes: Fab made in E. coli (heavy chain in plasmid A with CH1, His6 and Flag tags; kappa light chain in plasmid C); also called APF / parent; H:APF & L:wt

ECL signal [28]: 380
ECL signal [29]: 453
ECL signal [30]: 333
ECL signal [31]: 499
ECL signal [32]: 541
B2: Fab VH1-46_IGHD6-6*01_IGHJ1*01 S102A/S103P/S104F/H111F (APFF) & L6_IGKJ1*01 N93Y (Fab, V domains shown)
VH: QVQLVQSGAEVKKPGASVKVSCKASGYTFTSYYMHWVRQAPGQGLEWMGIINPSGGSTSYAQKFQGRVTMTRDTSTSTVYMELSSLRSEDTAVYYCAREEYAPFSAEYFQFWGQGTLVTVSS
VL: EIVLTQSPATLSLSPGERATLSCRASQSVSSYLAWYQQKPGQAPRLLIYDASNRATGIPARFSGSGSGTDFTLTISSLEPEDFAVYYCQQRSYWPPWTFGQGTKVEIKR
notes: Fab made in E. coli (heavy chain in plasmid A with CH1, His6 and Flag tags; kappa light chain in plasmid C); also called APFF / N93Y

ECL signal [33]: 335
ECL signal [34]: 125
ECL signal [35]: 156
ECL signal [36]: 265
ECL signal [37]: 302
B3: Fab VH1-46_IGHD6-6*01_IGHJ1*01 S102A/S103P/S104F (APF) & L6_IGKJ1*01 S92C (Fab, V domains shown)
VH: QVQLVQSGAEVKKPGASVKVSCKASGYTFTSYYMHWVRQAPGQGLEWMGIINPSGGSTSYAQKFQGRVTMTRDTSTSTVYMELSSLRSEDTAVYYCAREEYAPFSAEYFQHWGQGTLVTVSS
VL: EIVLTQSPATLSLSPGERATLSCRASQSVSSYLAWYQQKPGQAPRLLIYDASNRATGIPARFSGSGSGTDFTLTISSLEPEDFAVYYCQQRCNWPPWTFGQGTKVEIKR
notes: Fab made in E. coli (heavy chain in plasmid A with CH1, His6 and Flag tags; kappa light chain in plasmid C); also called APF / S92C
